Data: paper doi:10.1101/854497 (bioRxiv, 2020)
Where “and” joins values, the source holds several entries; their conditions need not be identical. Equal values may be shown once.

B1: His6-Pex17p (natural protein, yeast, UniProt P40155 1-199, looked up)
chain: MTSINSFPRNIDWPSNIGIKKIEGTNPTVNAIKGLLYNGGSIYAFLYFVIAMFVEPTLQKQYQQRNDFSLFVLLRLRRIIAQLQKRLVMTPVSSLGFNEQNNFVERSTQTSDDNIIREDNSHWAEMIYQLQNMKQELQYFNRSSGQPSESIDDFVFQIKMVTDQVELTDRSRAFSNKSRNIIQGIREIKGWFVNGQVPR
B2: StrepII-Pex14p(M51L) (natural protein, yeast, UniProt P53112 1-341, looked up)
chain: MSDVVSKDRKALFDSAVSFLKDESIKDAPLLKKIEFLKSKGLTEKEIEIALKEPKKDGIVGDEVSKKIGSTENRASQDMYLYEAMPPTLPHRDWKDYFVMATATAGLLYGAYEVTRRYVIPNILPEAKSKLEGDKKEIDDQFSKIDTVLNAIEAEQAEFRKKESETLKELSDTIAELKQALVQTTRSREKIEDEFRIVKLEVVNMQNTIDKFVSDNDGMQELNNIQKEMESLKSLMNNRMESGNAQDNRLFSISPNGIPGIDTIPSASEILAKMGMQEESDKEKENGSDANKDDNAVPAWKKAREQTIDSNASIPEWQKNTAANEISVPDWQNGQVEDSIP

Key:
StrepII-Pex14p(M51L) = target: B2; test: cryo-EM structure
native MS + SEC-MALS = target: the molecule itself; test: native MS + SEC-MALS
His6-Pex17p = target: B1; test: native MS
cross-linking = target: the molecule itself; test: cross-linking

Binder: B1
binding result (StrepII-Pex14p(M51L)): binds

Binder: B2
stoichiometry N (native MS + SEC-MALS): 3 copies | stoichiometry N (His6-Pex17p): 3 Pex14p:Pex17p and 6 Pex14p:Pex17p and 4.5 Pex14p:Pex17p

B3: Pex14p_(119-341) (domain or fragment, yeast, UniProt P53112 119-341, looked up)
chain: VIPNILPEAKSKLEGDKKEIDDQFSKIDTVLNAIEAEQAEFRKKESETLKELSDTIAELKQALVQTTRSREKIEDEFRIVKLEVVNMQNTIDKFVSDNDGMQELNNIQKEMESLKSLMNNRMESGNAQDNRLFSISPNGIPGIDTIPSASEILAKMGMQEESDKEKENGSDANKDDNAVPAWKKAREQTIDSNASIPEWQKNTAANEISVPDWQNGQVEDSIP
stoichiometry N (cross-linking): 3
